The supplement of paper PMC10724198
± gives the standard deviation of the averaged measurements.

Test system: Saccharomyces cerevisiae
Experiment: protein stability index of tFT-peptide fusion (C-terminal peptide) (PSI (0-1 scale)); higher = more stable (slower turnover)
Conditions: genetic background: wild type; temperature: 30 C
Procedure: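 Multiplexed protein stability (MPS) profiling in S. cerevisiae. Random 12-aa peptides (tFT-X12 library) are fused to the C-terminus of a sfGFP-mCherry tandem fluorescent timer, after mCherry and a GGGS linker. Cells are FACS-sorted into 8 mCherry/sfGFP bins and deep-sequenced. The protein stability index (PSI) is the read-weighted bin average, scaled from 0 (unstable) to 1 (stable). Only peptides with >10 reads are reported; cells were grown at 30 °C in SC-His with glucose.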
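Also: PSI is a weighted mean of sequencing reads over stability bins, variants kept only with over 10 reads, mCherry proximal and sfGFP distal, peptide attached via GGGS linker.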

| Sequence | protein stability index |
| --- | --- |
| CPALPPAPLSPL | 0.725 ± 0.018 |
| CPCRCLGFRWCF | 0.631 ± 0.076 |
| CPFLSISSNCSM | 0.667 ± 0.027 |
| CPGGQVECGVLC | 0.652 ± 0.021 |
| CPHSLDTFVSKF | 0.704 ± 0.066 |
| CPNLWSRFASRC | 0.716 ± 0.0085 |
| CPPLSPPLLLLL | 0.667 ± 0.017 |
| CPRRGSHLARLL | 0.621 ± 0.038 |
| CPSFTSVLPSVP | 0.678 ± 0.036 |
| CPSHPDCFPDRL | 0.6792 ± 0.0039 |
| CPSRCGLRAPYL | 0.706 ± 0.017 |
| CPTLSSHLLFPS | 0.659 ± 0.087 |
| CQPTTTCTGGNV | 0.693 ± 0.035 |
| CRFPFRILHPPF | 0.68957 ± 0.00018 |
| CRFYKYIRNMFR | 0.674 ± 0.074 |
| CRGGRHFSREKF | 0.723 ± 0.036 |
| CRGWWRPGLGVT | 0.64 ± 0.015 |
| CRILRPITLRFR | 0.528 ± 0.013 |
| CRLRHPFPLSTR | 0.644 ± 0.052 |
| CRLSCRSVDAST | 0.662 ± 0.022 |
| CRLTAWDESGSG | 0.673 ± 0.025 |
| CRPAASCLPPER | 0.6684 ± 0.0066 |
| CRRLSICPILFL | 0.607 ± 0.0062 |
| CRRRGPWDRRSR | 0.624 ± 0.014 |
| CRRRNRLLLFRK | 0.697 ± 0.037 |
| CRSCFGGGVRFV | 0.743 ± 0.076 |

| Sequence | protein stability index |
| --- | --- |
| CRTTDFQCTIGN | 0.683 ± 0.0087 |
| CRVALSRGVSLV | 0.65 ± 0.0094 |
| CRVVRPSLEPQV | 0.697 ± 0.02 |
| CRWLLWVDGWRV | 0.5838 ± 0.0043 |
| CSAESASPAERY | 0.6541 ± 0.0013 |
| CSHSLVLRFCPF | 0.607 ± 0.059 |
| CSLLCKCHLRRL | 0.712 ± 0.1 |
| CSLLFFFLLSFG | 0.521 ± 0.021 |
| CSLWVLKLFLGV | 0.544 ± 0.012 |
| CSPRPPPRSLHP | 0.812 ± 0.024 |
| CSPSPARPPPPR | 0.684 ± 0.013 |
| CSRGVVLFLGFL | 0.586 ± 0.016 |
| CSRPPFLLFVSP | 0.702 ± 0.0076 |
| CSRTSKKMSIGG | 0.613 ± 0.019 |
| CSSLLSSFSLRL | 0.671 ± 0.038 |
| CSSVTEFWWAVF | 0.766 ± 0.1 |
| CTMEDLGNCEGI | 0.691 ± 0.0082 |
| CVAFLAGIVSFL | 0.525 ± 0.019 |
| CVCGRFGGELGV | 0.653 ± 0.1 |
| CVCPLPLDSPVS | 0.629 ± 0.081 |
| CVERVGSTPMDS | 0.607 ± 0.053 |
| CVLLSEVNRTMG | 0.646 ± 0.041 |
| CVLVVCRFTGDW | 0.5083 ± 0.0038 |
| CVQVMTWAMLEC | 0.618 ± 0.022 |
| CVSRLIPGDKHE | 0.67 ± 0.032 |
| CVVRADGVVGIL | 0.649 ± 0.012 |

| Sequence | protein stability index |
| --- | --- |
| CVYGWVGRGWGA | 0.707 ± 0.079 |
| CWCGLGVWAFGV | 0.715 ± 0.039 |
| CWGAGGRTVING | 0.68 ± 0.034 |
| CWGEGGRTVING | 0.639 ± 0.03 |
| CWSSPSFSLLFP | 0.779 ± 0.028 |
| CWVNDGCPICGW | 0.732 ± 0.072 |
| CYCPPPGMPVPF | 0.736 ± 0.095 |
| DACPLAEGGGAA | 0.717 ± 0.035 |
| DAFWLRSRRSEG | 0.712 ± 0.0039 |
| DALGRSNGPPRV | 0.673 ± 0.027 |
| DAPSPPLTGVSR | 0.645 ± 0.01 |
| DASELLGRPVVL | 0.748 ± 0.012 |
| DAVWTRGGEGVW | 0.718 ± 0.019 |
| DCFISPRIFRPK | 0.721 ± 0.023 |
| DCKTCVVGCELF | 0.697 ± 0.043 |
| DCKVLIGQYQRE | 0.7 ± 0.0098 |
| DCPLPPRYRAPL | 0.691 ± 0.043 |
| DDGRDTLCGRGS | 0.68 ± 0.042 |
| DDRFNVGNLPQG | 0.672 ± 0.046 |
| DDSSLLMLNCLE | 0.71964 ± 0.00048 |
| DEEVGWGRGVGW | 0.72 ± 0.074 |
| DETCVGSWNSCG | 0.712 ± 0.044 |
| DFFPVSGLANEH | 0.636 ± 0.092 |
| DFSPSPWQFTCW | 0.692 ± 0.071 |
| DFVKVVPNVVDL | 0.659 ± 0.078 |
| DFVLKQIARINL | 0.648 ± 0.021 |

| Sequence | protein stability index |
| --- | --- |
| DGALWGTDRGAG | 0.701 ± 0.064 |
| DGCRLCRRFIFG | 0.669 ± 0.013 |
| DGFGVARGVSWG | 0.752 ± 0.035 |
| DGGGGGGGVAGD | 0.708 ± 0.051 |
| DGGRPFQKLYVA | 0.663 ± 0.014 |
| DGLWIYNINDGH | 0.7314 ± 0.0019 |
| DGTICAITYLTS | 0.6653 ± 0.0017 |
| DGWVAVGRALGG | 0.704 ± 0.028 |
| DHNTRGYQTKSR | 0.667 ± 0.031 |
| DIHSSQVPSMFA | 0.68 ± 0.076 |
| DIHVNLHKSRKM | 0.626 ± 0.027 |
| DIIGMPLLMKKK | 0.693 ± 0.03 |
| DIKATRTYNHKV | 0.68 ± 0.029 |
| DIKKRQNIKDRK | 0.686 ± 0.051 |
| DKKKNKDQKEKI | 0.731 ± 0.029 |
| DKKKRRERKDRT | 0.6746 ± 0.0061 |
| DKLSSRIPCSPS | 0.679 ± 0.0077 |
| DKTPRSHKKTAE | 0.738 ± 0.022 |
| DLAPLSFVHLLL | 0.596 ± 0.037 |
| DLFPTLFFIRSR | 0.689 ± 0.073 |
| DLGLSYCGYAML | 0.683 ± 0.064 |
| DLGVCCLLGDFG | 0.577 ± 0.0072 |
| DLPRCPPSPPPS | 0.713 ± 0.046 |
| DLPRLLLSPSLP | 0.67 ± 0.058 |
| DLRPSLPHPTQP | 0.673 ± 0.037 |
| DLRSSDPVAGSL | 0.623 ± 0.011 |

| Sequence | protein stability index |
| --- | --- |
| DLTPWLAPFRER | 0.797 ± 0.097 |
| DLWDDVAYVIVA | 0.619 ± 0.039 |
| DMYLPSSSHPPP | 0.712 ± 0.021 |
| DMYSVTRDHVMI | 0.655 ± 0.04 |
| DNARCKSPRSLN | 0.621 ± 0.092 |
| DNEMLQICRSRW | 0.774 ± 0.029 |
| DNGVLVFLPVLD | 0.6791 ± 0.0066 |
| DNMKLILNGYNL | 0.658 ± 0.03 |
| DNSIWPSALCAP | 0.703 ± 0.047 |
| DNWHRSFSTYPV | 0.647 ± 0.099 |
| DPPFPSGPPLPL | 0.6742 ± 0.0061 |
| DPPPHPPPASPT | 0.7 ± 0.1 |
| DPVLPSVRVSLG | 0.715 ± 0.068 |
| DQDVPLWGLVSM | 0.682 ± 0.054 |
| DQESTRLRWGTS | 0.66 ± 0.041 |
| DQNNSQIRHEQP | 0.575 ± 0.03 |
| DQRCRLQGRYQR | 0.733 ± 0.12 |
| DQRLKKKTVQMK | 0.778 ± 0.076 |
| DQVWGGSEDNTV | 0.76 ± 0.052 |
| DRCLFRFNLWGG | 0.7203 ± 0.0063 |
| DRFPGLILVSFP | 0.73 ± 0.05 |
| DRGKGEKGKKAD | 0.6797 ± 0.0036 |
| DRHVPPASYLAD | 0.6343 ± 0.0057 |
| DRLGDCRKPRPF | 0.657 ± 0.099 |
| DRNGKIGTFKKV | 0.795 ± 0.12 |
| DRNVMNGFTRPG | 0.659 ± 0.034 |

| Sequence | protein stability index |
| --- | --- |
| DRPPPPPRSSPL | 0.753 ± 0.046 |
| DRQGMIGLKYVK | 0.776 ± 0.11 |
| DRRRGVGESSFG | 0.703 ± 0.025 |
| DRWIGLWGGLWV | 0.63 ± 0.018 |
| DRYGVYPIYGKF | 0.6855 ± 0.0054 |
| DSASFAFCCFCD | 0.639 ± 0.023 |
| DSESSLPSLPHT | 0.682 ± 0.015 |
| DSGRRVTLLVFV | 0.594 ± 0.041 |
| DSHRRPGSPPPL | 0.688 ± 0.11 |
| DSILYKKYKQLG | 0.559 ± 0.024 |
| DSMLTYIRSTKD | 0.633 ± 0.007 |
| DSPPMTALITDF | 0.697 ± 0.019 |
| DSPRTFWGPTQK | 0.699 ± 0.055 |
| DSQAEPGLSARL | 0.796 ± 0.059 |
| DSSDIELSTRTL | 0.651 ± 0.027 |
| DSVQALDGRAGI | 0.683 ± 0.046 |
| DTDLWFASVFSS | 0.793 ± 0.022 |
| DTNRALMRKSHS | 0.673 ± 0.0088 |
| DVDWVLTLGCLG | 0.647 ± 0.034 |
| DVELTGCCLSRT | 0.696 ± 0.026 |
| DVGGDGDCVVSS | 0.661 ± 0.0024 |
| DVGRDVCEFRDR | 0.677 ± 0.045 |
| DVHPPPPAPPPP | 0.747 ± 0.12 |
| DVKNMVWKTIEL | 0.6746 ± 0.0065 |
| DVLSLFCKFFGV | 0.661 ± 0.075 |
